Assay results: patent publication US20130224798A1

Target: Toll-like Receptor 5 (TLR5) constitutively expressed by HEK293 cells (UniProt O60602)
Assay: cell-based or functional assay

Binder | TLR5 activity (EC50, ng/ml) | TLR activity (EC50, ng/ml)
STF2.HA1-1His(PR8), produced in E. coli (protein) MAQVINTNSLSLLTQNNLNKSQSALGTAIERLSSGLRINSAKDDAAGQAIANRFTANIKGLTQASRNANDGISIAQTTEGALNEINNNLQRVRELAVQSANSTNSQSDLDSIQAEITQRLNEIDRVSGQTQFNGVKVLAQDNTLTIQVGANDGETIDIDLKQINSQTLGLDSLNVQKAYDVKDTAVTTKAYANNGTTLDVSGLDDAAIKAATGGTNGTASVTGGAVKFDADNNKYFVTIGGFTGADAAKNGDYEVNVATDGTVTLAAGATKTTMPAGATTKTEVQELKDTPAVVSADAKNALIAGGVDATDANGAELVKMSYTDKNGKTIEGGYALKAGDKYYAADYDEATGAIKAKTTSYTAADGTTKTAANQLGGVDGKTEVVTIDGKTYNASKAAGHDFKAQPELAEAAAKTTENPLQKIDAALAQVDALRSDLGAVQNRFNSAITNLGNTVNNLSEARSRIEDSDYATEVSNMSRAQILQQAGTSVLAQANQVPQNVLSLLASHNGKLCRLKGIAPLQLGKCNIAGWLLGNPECDPLLPVRSWSYIVETPNSENGICYPGDFIDYEELREQLSSVSSFERFEIFPKESSWPNHNTNGVTAACSHEGKSSFYRNLLWLTEKEGSYPKLKNSYVNKKGKEVLVLWGIHHPPNSKEQQNLYQNENAYVSVVTSNYNRRFTPEIAERPKVRDQAGRMNYYWTLLKPGDTIIFEANGNLIAPMYAFALSRGFGSGIITSNASMHECNTKCQTPLGAINSSLPYQNIHPVTIGECPKYVRHHHHHH | 0.2 ng/mL | –
STF2.HA1-2mutHis(PR8), produced in Baculovirus (protein) AQVINTNSLSLLTQNNLNKSQSALGTAIERLSSGLRINSAKDDAAGQAIANRFTANIKGLTQASRNANDGISIAQTTEGALNEINNNLQRVRELAVQSANSTNSQSDLDSIQAEITQRLNEIDRVSGQTQFNGVKVLAQDNTLTIQVGANDGETIDIDLKQINSQTLGLDSLNVQKAYDVKDTAVTTKAYANNGTTLDVSGLDDAAIKAATGGTNGTASVTGGAVKFDADNNKYFVTIGGFTGADAAKNGDYEVNVATDGTVTLAAGATKTTMPAGATTKTEVQELKDTPAVVSADAKNALIAGGVDATDANGAELVKMSYTDKNGKTIEGGYALKAGDKYYAADYDEATGAIKAKTTSYTAADGTTKTAANQLGGVDGKTEVVTIDGKTYNASKAAGHDFKAQPELAEAAAKTTENPLQKIDAALAQVDALRSDLGAVQNRFNSAITNLGNTVNNLSEARSRIEDSDYATEVSNMSRAQILQQAGTSVLAQANQVPQNVLSLLASGSGSGSKGAAPLQLGKCNIAGWLLGNPECDPLLPVRSWSDIAETPNSENGICYPGDFIDYEELREQLSSVSSFERFEIFPKESSWPNHNTNGVTAACSHEGKSSFYRNLLWLTEKEGSYPKLKNSYVNKKGKEVLVLWGIHHPPNSKEQQNLYQNENAYVSVVTSNYNRRFTPEIAERPKVRDQAGRMNYYWTLLKPGDTIIFEANGNLIAPMYAFALSRGFGSGIITSHHHHHH | – | 900 ng/mL
ngSTF2.HA1-1His(PR8), produced in Baculovirus (protein) AQVINTNSLSLLTQNNLQKSQSALGTAIERLSSGLRINSAKDDAAGQAIANRFTANIKGLTQASRNANDGISIAQTTEGALNEINNNLQRVRELAVQSAQSTNSQSDLDSIQAEITQRLNEIDRVSGQTQFNGVKVLAQDNTLTIQVGANDGETIDIDLKQINSQTLGLDSLNVQKAYDVKDTAVTTKAYANQGTTLDVSGLDDAAIKAATGGTQGTASVTGGAVKFDADNNKYFVTIGGFTGADAAKNGDYEVNVATDGTVTLAAGATKTTMPAGATTKTEVQELKDTPAVVSADAKNALIAGGVDATDANGAELVKMSYTDKNGKTIEGGYALKAGDKYYAADYDEATGAIKAKTTSYTAADGTTKTAANQLGGVDGKTEVVTIDGKTYQASKAAGHDFKAQPELAEAAAKTTENPLQKIDAALAQVDALRSDLGAVQNRFNSAITNLGNTVNQLSEARSRIEDSDYATEVSQMSRAQILQQAGTSVLAQANQVPQNVLSLLASGSGSGSSHNGKLCRLKGIAPLQLGKCNIAGWLLGNPECDPLLPVRSWSYIVETPNSENGICYPGDFIDYEELREQLSSVSSFERFEIFPKESSWPNHNTNGVTAACSHEGKSSFYRNLLWLTEKEGSYPKLKNSYVNKKGKEVLVLWGIHHPPNSKEQQNLYQNENAYVSVVTSNYNRRFTPEIAERPKVRDQAGRMNYYWTLLKPGDTIIFEANGNLIAPMYAFALSRGFGSGIITSQASMHECNTKCQTPLGAIQSSLPYQNIHPVTIGECPKYVRHHHHHH | – | 30 ng/mL
STF2.HA1-2His(PR8), produced in Baculovirus (protein) AQVINTNSLSLLTQNNLNKSQSALGTAIERLSSGLRINSAKDDAAGQAIANRFTANIKGLTQASRNANDGISIAQTTEGALNEINNNLQRVRELAVQSANSTNSQSDLDSIQAEITQRLNEIDRVSGQTQFNGVKVLAQDNTLTIQVGANDGETIDIDLKQINSQTLGLDSLNVQKAYDVKDTAVTTKAYANNGTTLDVSGLDDAAIKAATGGTNGTASVTGGAVKFDADNNKYFVTIGGFTGADAAKNGDYEVNVATDGTVTLAAGATKTTMPAGATTKTEVQELKDTPAVVSADAKNALIAGGVDATDANGAELVKMSYTDKNGKTIEGGYALKAGDKYYAADYDEATGAIKAKTTSYTAADGTTKTAANQLGGVDGKTEVVTIDGKTYNASKAAGHDFKAQPELAEAAAKTTENPLQKIDAALAQVDALRSDLGAVQNRFNSAITNLGNTVNNLSEARSRIEDSDYATEVSNMSRAQILQQAGTSVLAQANQVPQNVLSLLASGSGSGSKGIAPQLGKCNIAGWLLGNPECDPLLPVRSWSYIVETPNSENGICYPGDFIDYEELREQLSSVSSFERFEIFPKESSWPNHNTNGVTAACSHEGKSSFYRNLLWLTEKEGSYPKLKNSYVNKKGKEVLVLWGIHHPPNSKEQQNLYQNENAYVSVVTSNYNRRFTPEIAERPKVRDQAGRMNYYWTLLKPGDTIIFEANGNLIAPMYAFALSRGFGSGIITSHHHHHH | – | 9 ng/mL
ngSTF2.HA1-2mutHis(PR8), produced in Baculovirus (protein) AQVINTNSLSLLTQNNLQKSQSALGTAIERLSSGLRINSAKDDAAGQAIANRFTANIKGLTQASRNANDGISIAQTTEGALNEINNNLQRVRELAVQSAQSTNSQSDLDSIQAEITQRLNEIDRVSGQTQFNGVKVLAQDNTLTIQVGANDGETIDIDLKQINSQTLGLDSLNVQKAYDVKDTAVTTKAYANQGTTLDVSGLDDAAIKAATGGTQGTASVTGGAVKFDADNNKYFVTIGGFTGADAAKNGDYEVNVATDGTVTLAAGATKTTMPAGATTKTEVQELKDTPAVVSADAKNALIAGGVDATDANGAELVKMSYTDKNGKTIEGGYALKAGDKYYAADYDEATGAIKAKTTSYTAADGTTKTAANQLGGVDGKTEVVTIDGKTYQASKAAGHDFKAQPELAEAAAKTTENPLQKIDAALAQVDALRSDLGAVQNRFNSAITNLGNTVNQLSEARSRIEDSDYATEVSQMSRAQILQQAGTSVLAQANQVPQNVLSLLASGSGSGSKGAAPQLGKCNIAGWLLGNPECDPLLPVRSWSDIAETPNSENGICYPGDFIDYEELREQLSSVSSFERFEIFPKESSWPNHNTNGVTAACSHEGKSSFYRNLLWLTEKEGSYPKLKNSYVNKKGKEVLVLWGIHHPPNSKEQQNLYQNENAYVSVVTSNYNRRFTPEIAERPKVRDQAGRMNYYWTLLKPGDTIIFEANGNLIAPMYAFALSRGFGSGIITSHHHHHH | – | 9 ng/mL
